Assay results taken from patent US20120322150A1 (CARNEGIE INSTITUTION OF WASHINGTON, published 2012).

Legend:
[1] = molecular target: T1, MBP-BSU1 (Arabidopsis, UniProt Q9LR78 1-793); experiment: overlay blot with MBP-BSU1 after incubation of GST-BSK1 with GST-BRI1-K
T1 construct: Recombinant fusion used as probe in overlay (far-western) blots and in phosphatase assays; also called BSU1 from E. coli
Experimental: Total protein extracts obtained from Arabidopsis plants (F1) expressing BSU1 -YFP or co-expressing BSU1-YFP and BSK1-myc were immunoprecipitated with anti-myc, and the immunoblot was probed with anti-GFP and anti-myc antibody. […] GST-BSK1 or GST-BSK1 S230A was incubated with GST-BRI1-K or GST for 2 hrs. […] In the presence of BR (+BR), BR binding to the extracellular domain of BRI1 induces dissociation of BKI1 and association and inter-activation between BRI1 and BAKI. Activated BRI1 then phosphorylates BSK1, which in turn dissociates from the receptor complex and interacts with and presumably activate BSU1. BSU1 inactivates BIN2 by dephosphorylating its pTyr200, allowing accumulation of unphosphorylated BZR1/2, likely with help of a phosphatase that is yet to be identified. Unphosphorylated BZR1/2 accumulate in the nucleus and alter the expression of BR-target genes, leading to cellular and developmental responses. While individual representative protein is shown for each function, in Arabidopsis most of these components have about 2 to 5 homologous proteins (paralogs) that can contribute to the same or similar signaling function.
To test interaction of BSU1 with BIN2 or bin2-1 in vitro, a gel blot separating GST, GST-BIN2, GSTbin2-1 was incubated with 20 μg MBP-BSU1 in 5% non-fat dry milk/PBS buffer and washed four times. The blot was then probed with a polyclonal anti-MBP antibody. […]

[2] = molecular target: T2, nYFP-BIN2 (Arabidopsis, UniProt Q39011 1-380); experiment: BiFC in Arabidopsis seedlings, epidermal cells
T2 construct: BiFC construct in transgenic Arabidopsis, crossed to BZR1-cYFP plants; not shown: N-terminal half of YFP (nYFP)
T2 sequence (looked up): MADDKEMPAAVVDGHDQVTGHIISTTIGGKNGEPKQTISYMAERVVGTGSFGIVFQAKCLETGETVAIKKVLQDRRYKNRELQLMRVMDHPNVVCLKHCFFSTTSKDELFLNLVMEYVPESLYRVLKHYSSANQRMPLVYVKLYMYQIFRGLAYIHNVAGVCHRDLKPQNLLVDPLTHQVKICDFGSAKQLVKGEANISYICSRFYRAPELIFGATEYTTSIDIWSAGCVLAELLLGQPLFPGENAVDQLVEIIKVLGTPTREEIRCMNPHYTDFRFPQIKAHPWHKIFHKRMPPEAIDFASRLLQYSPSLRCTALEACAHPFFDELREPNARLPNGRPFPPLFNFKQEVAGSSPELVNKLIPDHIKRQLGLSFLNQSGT
Experimental: (§1) FIGS. 5A-5G show regulation of the BIN2 homolog, AtSK12 BSU1-mediated tyrosine dephosphorylation. […] Activation domain (AD) fused AtSKs were transformed into the cells containing DNA binding domain (BD) fused BZR1. Yeast clones were grown on Synthetic Dropout (SD) or SD-Histidine medium. […] Transgenic Arabidopsis plants expressing nYFP-BIN2, nYFP-AtSK12 and nYFP-AtSK12-cd (C-terminal 29 amino acid deletion) were crossed to BZR1-cYFP plants, respectively. The seedlings of F1 generation were grown in white light for 7 days and YFP signals of epidermal cells were observed. […] GST-AtSK12 was incubated with MBP-BZR1 and ³²P-γATP. CBB indicates Coomassie brilliant blue-stained gel. […] Homozygous plants expressing AtSK12-myc were treated with 0.25 MM BL for 30 min. Proteins immunoprecipitated by anti-myc antibodies were blotted onto nitrocellulose membrane and probed by anti-myc antibody. […] (h) BR induces pTyr dephosphorylation of AtSK12. Homozygous AtSK12-myc plants were pretreated with 10 μM MG132 and then treated with 0.25 μM BL (+BL) or mock solution (−BL). […]
(§2) Transformation by Agrobacterium infiltration, observations of subcellular localization and BiFC signal in tobacco or Arabidopsis were performed as described previously 5. Fluorescence of YFP was visualized by using a spinning-disk confocal microscope (Leica Microsystems, Heerbruag, Germany).

[3] = molecular target: T3, nYFP-AtSK12 (Arabidopsis, UniProt P43289 1-409); experiment: BiFC in Arabidopsis seedlings, epidermal cells
T3 construct: BiFC construct in transgenic Arabidopsis; not shown: N-terminal half of YFP (nYFP)
T3 sequence (looked up): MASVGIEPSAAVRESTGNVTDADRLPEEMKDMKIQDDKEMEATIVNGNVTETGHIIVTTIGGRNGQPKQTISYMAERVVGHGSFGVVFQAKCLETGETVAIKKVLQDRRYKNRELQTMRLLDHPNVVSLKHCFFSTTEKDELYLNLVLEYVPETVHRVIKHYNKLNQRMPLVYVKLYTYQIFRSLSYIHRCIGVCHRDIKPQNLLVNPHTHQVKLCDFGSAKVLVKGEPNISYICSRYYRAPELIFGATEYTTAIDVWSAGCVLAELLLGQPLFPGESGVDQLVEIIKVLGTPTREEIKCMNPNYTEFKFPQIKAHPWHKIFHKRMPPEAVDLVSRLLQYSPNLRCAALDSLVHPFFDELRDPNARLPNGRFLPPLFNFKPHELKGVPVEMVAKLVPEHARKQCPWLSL
Experimental: as §1, §2

T1 sequence (Q9LR78 whole entry, the tested form may be a part): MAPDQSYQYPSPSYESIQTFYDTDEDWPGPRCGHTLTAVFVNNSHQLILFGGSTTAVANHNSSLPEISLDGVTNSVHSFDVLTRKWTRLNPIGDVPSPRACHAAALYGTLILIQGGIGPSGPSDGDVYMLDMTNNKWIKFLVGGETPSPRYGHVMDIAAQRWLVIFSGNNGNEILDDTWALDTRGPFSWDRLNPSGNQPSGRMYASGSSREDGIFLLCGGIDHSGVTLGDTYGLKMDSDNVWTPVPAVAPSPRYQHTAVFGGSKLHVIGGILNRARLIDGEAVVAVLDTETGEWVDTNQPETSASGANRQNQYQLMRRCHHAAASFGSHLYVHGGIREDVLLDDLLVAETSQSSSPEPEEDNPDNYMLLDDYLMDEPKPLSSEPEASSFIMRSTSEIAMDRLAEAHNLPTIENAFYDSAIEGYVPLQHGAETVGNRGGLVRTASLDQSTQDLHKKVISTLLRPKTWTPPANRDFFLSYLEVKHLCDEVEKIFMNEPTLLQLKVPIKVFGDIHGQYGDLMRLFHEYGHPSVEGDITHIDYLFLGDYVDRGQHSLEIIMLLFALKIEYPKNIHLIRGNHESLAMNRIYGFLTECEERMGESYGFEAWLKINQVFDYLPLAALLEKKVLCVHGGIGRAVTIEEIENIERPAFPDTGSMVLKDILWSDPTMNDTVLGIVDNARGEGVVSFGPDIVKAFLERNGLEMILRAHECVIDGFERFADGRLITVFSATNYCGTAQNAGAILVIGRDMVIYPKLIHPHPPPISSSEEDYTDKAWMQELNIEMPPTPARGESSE

B1: GST-BSK1 phosphorylated by GST-BRI1-K (enzyme, Arabidopsis, UniProt Q944A7 1-512, looked up)
chain: MGCCQSLFSGDNPLGKDGVQPQPLSQNNHGGATTADNGGSGGASGVGGGGGGGGIPSFSEFSFADLKAATNNFSSDNIVSESGEKAPNLVYKGRLQNRRWIAVKKFTKMAWPEPKQFAEEAWGVGKLRHNRLANLIGYCCDGDERLLVAEFMPNDTLAKHLFHWENQTIEWAMRLRVGYYIAEALDYCSTEGRPLYHDLNAYRVLFDEDGDPRLSCFGLMKNSRDGKSYSTNLAYTPPEYLRNGRVTPESVTYSFGTVLLDLLSGKHIPPSHALDMIRGKNIILLMDSHLEGKFSTEEATVVVELASQCLQYEPRERPNTKDLVATLAPLQTKSDVPSYVMLGIKKQEEAPSTPQRPLSPLGEACSRMDLTAIHQILVMTHYRDDEGTNELSFQEWTQQMKDMLDARKRGDQSFREKDFKTAIDCYSQFIDVGTMVSPTVFGRRSLCYLLCDQPDAALRDAMQAQCVYPDWPTAFYMQSVALAKLNMNTDAADMLNEAAQLEEKRQRGGRGS
modifications: phosphorylated by BRI1 kinase domain in vitro; phospho-Ser230 as the site named
notes: GST-BSK1 incubated with GST-BRI1-K and 100 uM ATP for 2 hrs before SDS-PAGE; also called phosphorylated BSK1; not shown: GST (glutathione S-transferase) tag
Q: Does B1 bind [1]?
A: Result: binds

B2: BZR1-cYFP (other, Arabidopsis, UniProt Q8S307 1-336, looked up)
chain: MTSDGATSTSAAAAAAAAAAARRKPSWRERENNRRRERRRRAVAAKIYTGLRAQGDYNLPKHCDNNEVLKALCVEAGWVVEEDGTTYRKGCKPLPGEIAGTSSRVTPYSSQNQSPLSSAFQSPIPSYQVSPSSSSFPSPSRGEPNNNMSSTFFPFLRNGGIPSSLPSLRISNSCPVTPPVSSPTSKNPKPLPNWESIAKQSMAIAKQSMASFNYPFYAVSAPASPTHRHQFHTPATIPECDESDSSTVDSGHWISFQKFAQQQPFSASMVPTSPTFNLVKPAPQQMSPNTAAFQEIGQSSEFKFENSQVKPWEGERIHDVGMEDLELTLGNGKARG
notes: BiFC construct in transgenic Arabidopsis; not shown: C-terminal half of YFP (cYFP)
Q: Does B2 bind [2]?
A: Result: binds

Q: Does B2 bind [3]?
A: Result: binds
